Source: publication PMC4500542 (Cell reports, 2015)
Where two headings read alike, the source gives them in different places.

Legend:
[1] = target: EBOV NP° core domain (NP 34-367) (Ebola virus (EBOV, formerly Zaire ebolavirus)) (UniProt P18272); assay: ITC
[2] = target: the molecule itself; assay: SEC-MALS
[3] = target: the molecule itself; assay: SEC-MALS; remark: listed apart in the source

Molecule	binding result [3]	other results
EBOV VP35 1-80 peptide (purified, wild type) (from UniProt Q05127 1-80) (domain or fragment)		Kd [1]: 1.1 nM
MBP-EBOV NP 1-739 (oligomeric, RNA-bound) (natural protein) MDSRPQKIWMAPSLTESDMDYHKILTAGLSVQQGIVRQRVIPVYQVNNLEEICQLIIQAFEAGVDFQESADSFLLMLCLHHAYQGDYKLFLESGAVKYLEGHGFRFEVKKRDGVKRLEELLPAVSSGKNIKRTLAAMPEEETTEANAGQFLSFASLFLPKLVVGEKACLEKVQRQIQVHAEQGLIQYPTAWQSVGHMMVIFRLMRTNFLIKFLLIHQGMHMVAGHDANDAVISNSVAQARFSGLLIVKTVLDHILQKTERGVRLHPLARTAKVKNEVNSFKAALSSLAKHGEYAPFARLLNLSGVNNLEHGLFPQLSAIALGVATAHGSTLAGVNVGEQYQQLREAATEAEKQLQQYAESRELDHLGLDDQEKKILMNFHQKKNEISFQQTNAMVTLRKERLAKLTEAITAASLPKTSGHYDDDDDIPFPGPINDDDNPGHQDDDPTDSQDTTIPDVVVDPDDGSYGEYQSYSENGMNAPDDLVLFDLDEDDEDTKPVPNRSTKGGQQKNSQKGQHIEGRQTQSRPIQNVPGPHRTIHHASAPLTDNDRRNEPSGSTSPRMLTPINEEADPLDDADDETSSLPPLESDDEEQDRDGTSNRTPTVAPPAPVYRDHSEKKELPQDEQQDQDHTQEARNQDSDNTQSEHSFEEMYRHILRSQGPFDAVLYYHMMKDEPVVFSTSDGKEYTYPDSLEEEYPPWLTEKEAMNEENRFVTLDGQQFYWPVMNHKNKFMAILQHHQ		binding result [2]: binds
MBP-EBOV NP 19-389 (domain or fragment) MDYHKILTAGLSVQQGIVRQRVIPVYQVNNLEEICQLIIQAFEAGVDFQESADSFLLMLCLHHAYQGDYKLFLESGAVKYLEGHGFRFEVKKRDGVKRLEELLPAVSSGKNIKRTLAAMPEEETTEANAGQFLSFASLFLPKLVVGEKACLEKVQRQIQVHAEQGLIQYPTAWQSVGHMMVIFRLMRTNFLIKFLLIHQGMHMVAGHDANDAVISNSVAQARFSGLLIVKTVLDHILQKTERGVRLHPLARTAKVKNEVNSFKAALSSLAKHGEYAPFARLLNLSGVNNLEHGLFPQLSAIALGVATAHGSTLAGVNVGEQYQQLREAATEAEKQLQQYAESRELDHLGLDDQEKKILMNFHQKKNEISFQ	binds	
MBP-EBOV NP 1-450 (oligomeric, RNA-bound) (domain or fragment) MDSRPQKIWMAPSLTESDMDYHKILTAGLSVQQGIVRQRVIPVYQVNNLEEICQLIIQAFEAGVDFQESADSFLLMLCLHHAYQGDYKLFLESGAVKYLEGHGFRFEVKKRDGVKRLEELLPAVSSGKNIKRTLAAMPEEETTEANAGQFLSFASLFLPKLVVGEKACLEKVQRQIQVHAEQGLIQYPTAWQSVGHMMVIFRLMRTNFLIKFLLIHQGMHMVAGHDANDAVISNSVAQARFSGLLIVKTVLDHILQKTERGVRLHPLARTAKVKNEVNSFKAALSSLAKHGEYAPFARLLNLSGVNNLEHGLFPQLSAIALGVATAHGSTLAGVNVGEQYQQLREAATEAEKQLQQYAESRELDHLGLDDQEKKILMNFHQKKNEISFQQTNAMVTLRKERLAKLTEAITAASLPKTSGHYDDDDDIPFPGPINDDDNPGHQDDDPTDSQ	binds	
EBOV NP 1-450 (co-expressed with His-VP35 1-80) (domain or fragment) MDSRPQKIWMAPSLTESDMDYHKILTAGLSVQQGIVRQRVIPVYQVNNLEEICQLIIQAFEAGVDFQESADSFLLMLCLHHAYQGDYKLFLESGAVKYLEGHGFRFEVKKRDGVKRLEELLPAVSSGKNIKRTLAAMPEEETTEANAGQFLSFASLFLPKLVVGEKACLEKVQRQIQVHAEQGLIQYPTAWQSVGHMMVIFRLMRTNFLIKFLLIHQGMHMVAGHDANDAVISNSVAQARFSGLLIVKTVLDHILQKTERGVRLHPLARTAKVKNEVNSFKAALSSLAKHGEYAPFARLLNLSGVNNLEHGLFPQLSAIALGVATAHGSTLAGVNVGEQYQQLREAATEAEKQLQQYAESRELDHLGLDDQEKKILMNFHQKKNEISFQQTNAMVTLRKERLAKLTEAITAASLPKTSGHYDDDDDIPFPGPINDDDNPGHQDDDPTDSQ	binds	
EBOV NP 1-450 released by TEV protease from the cleavable fusion (RNA-free) (domain or fragment) MDSRPQKIWMAPSLTESDMDYHKILTAGLSVQQGIVRQRVIPVYQVNNLEEICQLIIQAFEAGVDFQESADSFLLMLCLHHAYQGDYKLFLESGAVKYLEGHGFRFEVKKRDGVKRLEELLPAVSSGKNIKRTLAAMPEEETTEANAGQFLSFASLFLPKLVVGEKACLEKVQRQIQVHAEQGLIQYPTAWQSVGHMMVIFRLMRTNFLIKFLLIHQGMHMVAGHDANDAVISNSVAQARFSGLLIVKTVLDHILQKTERGVRLHPLARTAKVKNEVNSFKAALSSLAKHGEYAPFARLLNLSGVNNLEHGLFPQLSAIALGVATAHGSTLAGVNVGEQYQQLREAATEAEKQLQQYAESRELDHLGLDDQEKKILMNFHQKKNEISFQQTNAMVTLRKERLAKLTEAITAASLPKTSGHYDDDDDIPFPGPINDDDNPGHQDDDPTDSQ	binds	
EBOV NP 1-450 (oligomeric, RNA-bound, purified directly from E. coli) (domain or fragment) MDSRPQKIWMAPSLTESDMDYHKILTAGLSVQQGIVRQRVIPVYQVNNLEEICQLIIQAFEAGVDFQESADSFLLMLCLHHAYQGDYKLFLESGAVKYLEGHGFRFEVKKRDGVKRLEELLPAVSSGKNIKRTLAAMPEEETTEANAGQFLSFASLFLPKLVVGEKACLEKVQRQIQVHAEQGLIQYPTAWQSVGHMMVIFRLMRTNFLIKFLLIHQGMHMVAGHDANDAVISNSVAQARFSGLLIVKTVLDHILQKTERGVRLHPLARTAKVKNEVNSFKAALSSLAKHGEYAPFARLLNLSGVNNLEHGLFPQLSAIALGVATAHGSTLAGVNVGEQYQQLREAATEAEKQLQQYAESRELDHLGLDDQEKKILMNFHQKKNEISFQQTNAMVTLRKERLAKLTEAITAASLPKTSGHYDDDDDIPFPGPINDDDNPGHQDDDPTDSQ	binds	
